Non-standard residues stand in square brackets, D forms with d. *: point of attachment. X3 = ((1S)-1-Carboxy-2-hydroxyethyl)carbamoyl, O=C(O)[C@H](CO)NC(=O)*; X2 = (tetrahydro-2H-pyran-4-ylmethyl)carbamoyl, O=C(NCC1CCOCC1)*; X8 = (2-Hydroxy-1-(hydroxymethyl)ethyl)carbamoyl, O=C(NC(CO)CO)*; X7 = (tetrahydro-2H-pyran-4-yl)carbamoyl, O=C(NC1CCOCC1)*; (3-carboxypropyl)carbamoyl = O=C(O)CCCNC(=O)*; (carboxymethyl)carbamoyl = O=C(O)CNC(=O)*; Imidazole4carbonyl = O=C(c1cnc[nH]1)*; 4Pal = N[C@@H](Cc1ccncc1)C(=O)O; Cha = N[C@@H](CC1CCCCC1)C(=O)O; Iva = CC[C@](C)(N)C(=O)O; Aib = CC(C)(N)C(=O)O
B1: (Carboxymethyl)carbamoyl-[D-Pro24, Iva25, Pya(4)26, Cha27,36, Aib28,31, Lys30]-PYY(23-36) (peptide)
peptide: {(carboxymethyl)carbamoyl}-S[dP][Iva][4Pal][Cha][Aib]NK[Aib]TRQR[Cha]-NH2
SMILES: CC[C@](C)(NC(=O)[C@H]1CCCN1C(=O)[C@H](CO)NC(=O)NCC(=O)O)C(=O)N[C@@H](Cc1ccncc1)C(=O)N[C@@H](CC1CCCCC1)C(=O)NC(C)(C)C(=O)N[C@@H](CC(N)=O)C(=O)N[C@@H](CCCCN)C(=O)NC(C)(C)C(=O)N[C@H](C(=O)N[C@@H](CCCNC(=N)N)C(=O)N[C@@H](CCC(N)=O)C(=O)N[C@@H](CCCNC(=N)N)C(=O)N[C@@H](CC1CCCCC1)C(N)=O)[C@@H](C)O
B2: Ac-[Glu23, D-Pro24, Iva25, Pya(4)26, Cha27,36, Aib28,31, Lys30]-PYY(23-36) (peptide)
peptide: Ac-E[dP][Iva][4Pal][Cha][Aib]NK[Aib]TRQR[Cha]-NH2
SMILES: CC[C@](C)(NC(=O)[C@H]1CCCN1C(=O)[C@H](CCC(=O)O)NC(C)=O)C(=O)N[C@@H](Cc1ccncc1)C(=O)N[C@@H](CC1CCCCC1)C(=O)NC(C)(C)C(=O)N[C@@H](CC(N)=O)C(=O)N[C@@H](CCCCN)C(=O)NC(C)(C)C(=O)N[C@H](C(=O)N[C@@H](CCCNC(=N)N)C(=O)N[C@@H](CCC(N)=O)C(=O)N[C@@H](CCCNC(=N)N)C(=O)N[C@@H](CC1CCCCC1)C(N)=O)[C@@H](C)O
B3: [(1S)-1-Carboxy-2-hydroxyethyl]carbamoyl-[D-Pro24, Iva25, Pya(4)26, Cha27,36, Aib28,31, Lys30]-PYY(23-36) (peptide)
peptide: X3-S[dP][Iva][4Pal][Cha][Aib]NK[Aib]TRQR[Cha]-NH2
SMILES: CC[C@](C)(NC(=O)[C@H]1CCCN1C(=O)[C@H](CO)NC(=O)N[C@@H](CO)C(=O)O)C(=O)N[C@@H](Cc1ccncc1)C(=O)N[C@@H](CC1CCCCC1)C(=O)NC(C)(C)C(=O)N[C@@H](CC(N)=O)C(=O)N[C@@H](CCCCN)C(=O)NC(C)(C)C(=O)N[C@H](C(=O)N[C@@H](CCCNC(=N)N)C(=O)N[C@@H](CCC(N)=O)C(=O)N[C@@H](CCCNC(=N)N)C(=O)N[C@@H](CC1CCCCC1)C(N)=O)[C@@H](C)O
B4: [2-Hydroxy-1-(hydroxymethyl)ethyl]carbamoyl-[D-Pro24, Iva25, Pya(4)26, Cha27,36, Aib28,31, Lys30]-PYY(23-36) (peptide)
peptide: X8-S[dP][Iva][4Pal][Cha][Aib]NK[Aib]TRQR[Cha]-NH2
SMILES: CC[C@](C)(NC(=O)[C@H]1CCCN1C(=O)[C@H](CO)NC(=O)NC(CO)CO)C(=O)N[C@@H](Cc1ccncc1)C(=O)N[C@@H](CC1CCCCC1)C(=O)NC(C)(C)C(=O)N[C@@H](CC(N)=O)C(=O)N[C@@H](CCCCN)C(=O)NC(C)(C)C(=O)N[C@H](C(=O)N[C@@H](CCCNC(=N)N)C(=O)N[C@@H](CCC(N)=O)C(=O)N[C@@H](CCCNC(=N)N)C(=O)N[C@@H](CC1CCCCC1)C(N)=O)[C@@H](C)O
B5: (Tetrahydro-2H-pyran-4-yl)carbamoyl-[D-Pro24, Iva25, Pya(4)26, Cha27,36, Aib28,31, Lys30]-PYY(23-36) (peptide)
peptide: X7-S[dP][Iva][4Pal][Cha][Aib]NK[Aib]TRQR[Cha]-NH2
SMILES: CC[C@](C)(NC(=O)[C@H]1CCCN1C(=O)[C@H](CO)NC(=O)NC1CCOCC1)C(=O)N[C@@H](Cc1ccncc1)C(=O)N[C@@H](CC1CCCCC1)C(=O)NC(C)(C)C(=O)N[C@@H](CC(N)=O)C(=O)N[C@@H](CCCCN)C(=O)NC(C)(C)C(=O)N[C@H](C(=O)N[C@@H](CCCNC(=N)N)C(=O)N[C@@H](CCC(N)=O)C(=O)N[C@@H](CCCNC(=N)N)C(=O)N[C@@H](CC1CCCCC1)C(N)=O)[C@@H](C)O
B6: (3-Carboxypropyl)carbamoyl-[D-Pro24, Iva25, Pya(4)26, Cha27,36, Aib28,31, Lys30]-PYY(23-36) (peptide)
peptide: {(3-carboxypropyl)carbamoyl}-S[dP][Iva][4Pal][Cha][Aib]NK[Aib]TRQR[Cha]-NH2
SMILES: CC[C@](C)(NC(=O)[C@H]1CCCN1C(=O)[C@H](CO)NC(=O)NCCCC(=O)O)C(=O)N[C@@H](Cc1ccncc1)C(=O)N[C@@H](CC1CCCCC1)C(=O)NC(C)(C)C(=O)N[C@@H](CC(N)=O)C(=O)N[C@@H](CCCCN)C(=O)NC(C)(C)C(=O)N[C@H](C(=O)N[C@@H](CCCNC(=N)N)C(=O)N[C@@H](CCC(N)=O)C(=O)N[C@@H](CCCNC(=N)N)C(=O)N[C@@H](CC1CCCCC1)C(N)=O)[C@@H](C)O
B7: 4-Imidazolecarbonyl-[D-Pro24, Iva25, Pya(4)26, Cha27,30,36, Aib28,31]-PYY(23-36) (peptide)
peptide: Imidazole4carbonyl-S[dP][Iva][4Pal][Cha][Aib]N[Cha][Aib]TRQR[Cha]-NH2
SMILES: CC[C@](C)(NC(=O)[C@H]1CCCN1C(=O)[C@H](CO)NC(=O)c1cnc[nH]1)C(=O)N[C@@H](Cc1ccncc1)C(=O)N[C@@H](CC1CCCCC1)C(=O)NC(C)(C)C(=O)N[C@@H](CC(N)=O)C(=O)N[C@@H](CC1CCCCC1)C(=O)NC(C)(C)C(=O)N[C@H](C(=O)N[C@@H](CCCNC(=N)N)C(=O)N[C@@H](CCC(N)=O)C(=O)N[C@@H](CCCNC(=N)N)C(=O)N[C@@H](CC1CCCCC1)C(N)=O)[C@@H](C)O
B8: (Tetrahydro-2H-pyran-4-ylmethyl)carbamoyl-[D-Pro24, Iva25, Pya(4)26, Cha27,36, Aib28,31, Lys30]-PYY(23-36) (peptide)
peptide: X2-S[dP][Iva][4Pal][Cha][Aib]NK[Aib]TRQR[Cha]-NH2
SMILES: CC[C@](C)(NC(=O)[C@H]1CCCN1C(=O)[C@H](CO)NC(=O)NCC1CCOCC1)C(=O)N[C@@H](Cc1ccncc1)C(=O)N[C@@H](CC1CCCCC1)C(=O)NC(C)(C)C(=O)N[C@@H](CC(N)=O)C(=O)N[C@@H](CCCCN)C(=O)NC(C)(C)C(=O)N[C@H](C(=O)N[C@@H](CCCNC(=N)N)C(=O)N[C@@H](CCC(N)=O)C(=O)N[C@@H](CCCNC(=N)N)C(=O)N[C@@H](CC1CCCCC1)C(N)=O)[C@@H](C)O

Molecular target: human Y2 receptor (human) (UniProt P49146)
Test: cell-based or functional assay

Chain of human Y2 receptor (human) (P49146 whole entry): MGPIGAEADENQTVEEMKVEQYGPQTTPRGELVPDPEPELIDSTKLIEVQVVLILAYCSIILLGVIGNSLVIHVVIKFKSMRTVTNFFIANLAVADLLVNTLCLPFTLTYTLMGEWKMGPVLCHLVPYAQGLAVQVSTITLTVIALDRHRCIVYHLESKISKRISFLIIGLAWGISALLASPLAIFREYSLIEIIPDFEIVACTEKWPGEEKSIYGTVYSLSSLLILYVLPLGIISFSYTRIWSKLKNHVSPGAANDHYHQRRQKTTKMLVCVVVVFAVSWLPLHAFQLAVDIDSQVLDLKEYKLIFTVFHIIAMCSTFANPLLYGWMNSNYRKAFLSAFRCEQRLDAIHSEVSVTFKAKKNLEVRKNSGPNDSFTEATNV

With B1 as the binder, how does the GBA EC50 Ratio ([35S]GTPγS binding) (EC50 compound/EC50 PYY(3-36)) read?
Its GBA EC50 Ratio ([35S]GTPγS binding) (EC50 compound/EC50 PYY(3-36)) is 1.6.

Which GBA EC50 Ratio ([35S]GTPγS binding) (EC50 compound/EC50 PYY(3-36)) does the source give for B2 here?
The GBA EC50 Ratio ([35S]GTPγS binding) (EC50 compound/EC50 PYY(3-36)) was 2.8.

B3 was tested. Which GBA EC50 Ratio ([35S]GTPγS binding) (EC50 compound/EC50 PYY(3-36)) did it give?
Its GBA EC50 Ratio ([35S]GTPγS binding) (EC50 compound/EC50 PYY(3-36)) is 3.

Which GBA EC50 Ratio ([35S]GTPγS binding) (EC50 compound/EC50 PYY(3-36)) does the source give for B4 here?
Its GBA EC50 Ratio ([35S]GTPγS binding) (EC50 compound/EC50 PYY(3-36)) is 2.

With B5 as the binder, how does the GBA EC50 Ratio ([35S]GTPγS binding) (EC50 compound/EC50 PYY(3-36)) read?
The GBA EC50 Ratio ([35S]GTPγS binding) (EC50 compound/EC50 PYY(3-36)) was 1.8.

With B6 as the binder, how does the GBA EC50 Ratio ([35S]GTPγS binding) (EC50 compound/EC50 PYY(3-36)) read?
The GBA EC50 Ratio ([35S]GTPγS binding) (EC50 compound/EC50 PYY(3-36)) was 1.9.

B7 was tested. Which GBA EC50 Ratio ([35S]GTPγS binding) (EC50 compound/EC50 PYY(3-36)) did it give?
Its GBA EC50 Ratio ([35S]GTPγS binding) (EC50 compound/EC50 PYY(3-36)) is 1.9.

For B8, which GBA EC50 Ratio ([35S]GTPγS binding) (EC50 compound/EC50 PYY(3-36)) is on record?
Its GBA EC50 Ratio ([35S]GTPγS binding) (EC50 compound/EC50 PYY(3-36)) is 1.9.

Molecular target: human Y2 receptor (human) (UniProt P49146)
Test: RBA: displacement of [125I]-PYY from hY2R/CHO membranes

B1 was tested. Which IC50 Ratio (IC50 compound/IC50 PYY(3-36)) did it give?
The IC50 Ratio (IC50 compound/IC50 PYY(3-36)) was 3.

Which IC50 Ratio (IC50 compound/IC50 PYY(3-36)) does the source give for B2 here?
The IC50 Ratio (IC50 compound/IC50 PYY(3-36)) was 6.1.

Which IC50 Ratio (IC50 compound/IC50 PYY(3-36)) does the source give for B3 here?
Its IC50 Ratio (IC50 compound/IC50 PYY(3-36)) is 3.5.

How did the IC50 Ratio (IC50 compound/IC50 PYY(3-36)) turn out when B4 was run?
The IC50 Ratio (IC50 compound/IC50 PYY(3-36)) was 1.76.

How did the IC50 Ratio (IC50 compound/IC50 PYY(3-36)) turn out when B5 was run?
The IC50 Ratio (IC50 compound/IC50 PYY(3-36)) was 1.7.

How did the IC50 Ratio (IC50 compound/IC50 PYY(3-36)) turn out when B6 was run?
The IC50 Ratio (IC50 compound/IC50 PYY(3-36)) was 1.6.

With B7 as the binder, how does the IC50 Ratio (IC50 compound/IC50 PYY(3-36)) read?
Its IC50 Ratio (IC50 compound/IC50 PYY(3-36)) is 2.3.

Which IC50 Ratio (IC50 compound/IC50 PYY(3-36)) does the source give for B8 here?
Its IC50 Ratio (IC50 compound/IC50 PYY(3-36)) is 1.7.
